Reference: the nanobody polyreactivity screen of Harvey et al. (2022)

Experiment: yeast display, Sf9 membrane polyspecificity reagent, FACS + sequencing; frameworks hold sequencing errors
Method in brief: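 After 36–48 hours of galactose induction, yeast (Saccharomyces cerevisiae BJ5465) displaying a synthetic nanobody library were stained at 4 °C for 1 hour with 10% biotinylated, detergent-solubilized Sf9 membrane reagent. Streptavidin microbeads enriched the stained cells before FACS sorting into low and high (top ~1%) gates on anti-HA and streptavidin fluorescence. Each clone's polyreactivity label reflects its gate of origin.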

**Q.** Which “polyreactivity (PSR sort gate)” value does the source give for “QVQLVESGGGLVQSGGSLRLSCAASGLIIGLYAMGWYRQAPGTERELVAAISDNGARTYYADSVKGRFTISRDYAKYTVYLQMNSLKPEDTAVDYCARDQSYHYNYWGQGTQVTVSS” here?
**A.** low polyreactivity

**Q.** For “QVQLVESGGGLVQSGGSLRLSCAASGLTFRRNPMGRYRQAPGKERELVATITSGGSTNYADSVKGRFTISRDNAKNTVYLQMNSLKTEDTAVYYCAARTTYITPWAGRYFSWDYDYWGQGTQVTVSS”, which “polyreactivity (PSR sort gate)” value is on record?
**A.** high polyreactivity

**Q.** With “QVQLVESGGGLVQSGGSLRLSCAASGLTLGHNAMGLYRQAPGKERELVAAITRGGSTNYSDSVKGRFTISRDNAKNTVYFHMNSLKPEYTAVYSCAADLYLGWYYGFEYDYWGQGTQVTVSS” as the sequence, how does the “polyreactivity (PSR sort gate)” value read?
**A.** low polyreactivity

**Q.** With “QVQLVESGGGLVQSGGSLRLSCAASGNTFHSNAMGWYRQAPGKERELVAAITPSDGDTYYADSVKGRFTISRDNAKNTVYLQMNSLKPEDTAVYYCNARKQVYKIYYSDYRRYDYWGQGTQVTVSS” as the sequence, how does the “polyreactivity (PSR sort gate)” value read?
**A.** low polyreactivity

**Q.** With “QVQLVESGGGLVQSGGSLRLSCAASGRIFVYYAMGWYIQAPGKEMELVAAIDGSDGTTYYADSVKGRFTISRDNAKNTVYLQMNSLKPEDTSVYYCAKDNSLPDYDYWGQGTQVTVSS” as the sequence, how does the “polyreactivity (PSR sort gate)” value read?
**A.** low polyreactivity

**Q.** Which “polyreactivity (PSR sort gate)” value does the source give for “QVQLVESGGGLVQSGGSLRLSCAASGRTFRYYVMGWYRQAPGKERELVADISRGGGRTRYADSVKGRFTISRDNAKNTVYLQMNSLKRDDTAVYYCGARSYSGQFGYWGQGTQVTVSS” here?
**A.** high polyreactivity

**Q.** Which “polyreactivity (PSR sort gate)” value does the source give for “QVQLVESGGGLVQSGGSLRLSCAASGSIFGYYAMGWYRPAPGKERELVAGITNSGDTNYADSVKGRFTISRDNAKNTVYLQMNSLKPEDTAVYYCAAESWAALYGMDYWGQGTQVTVSS” here?
**A.** low polyreactivity

**Q.** Which “polyreactivity (PSR sort gate)” value does the source give for “QVQLVESGGGLVQSGGSLRLSCAASGSIFTGYAMGWYRQAPGKERELVAAITGRGTRTYYADSLKGRFTISRDNANNTVSLQMNSLKPEDTAVYYCAAPVGASSYRDYYWGQGTQVNVSS” here?
**A.** high polyreactivity

**Q.** For “QVQLVESGGGLVQSGGSLRLSCAASGSIFTWYTMGWYRQAPGKERELVAAISWSGGRTYYADSVKGRFTISRDNAKNTVYLQMNSLKPEDTAVYYCAASAYGRPPFDYWGQGTQVTVSS”, which “polyreactivity (PSR sort gate)” value is on record?
**A.** high polyreactivity

**Q.** For “QVQLVESGGGLVQSGGSLRLSCAASGSIYAYYAMGWYRQAPGKERELVAAIRFNSGRTYYADSVKGRFTISRDNAKNTVYLQMKSLKPEDTAVYYCAARDGYVYSHRYDYWGQGTQVTVSS”, which “polyreactivity (PSR sort gate)” value is on record?
**A.** high polyreactivity

**Q.** Which “polyreactivity (PSR sort gate)” value does the source give for “QVQLVESGGGLVQSGGSLRLSCAASGSTFSINPMGWYRQAPGKERELFAAITWRGVRTYYADSVKGRFTISRDNAKNTVYFQMNSLKPEDTAVYYCAADVVVAGHPGFDYWGQGTQVTVSS” here?
**A.** high polyreactivity

**Q.** With “QVQLVESGGGLVQSGGSLRLSCAASGSTSGTNAMGWYRQAPGKERELVAGISYRGGSTYYADSVKGRFTISRDNAKNTVYLHMNSLKPEDTEVYYCAASRNISYWGQGTQVTVSS” as the sequence, how does the “polyreactivity (PSR sort gate)” value read?
**A.** high polyreactivity

**Q.** Which “polyreactivity (PSR sort gate)” value does the source give for “QVQLVESGGGLVQSGGSLRLSCAGSGSTFHYNAMGWYRQAPGKEREFVAAISRTGTSTYYADSVKGRFTISRDNAKNTVYLQMNSLKPEDTAVYYFAAKSLRSGMGYWGQGTQVTVSS” here?
**A.** high polyreactivity

**Q.** Which “polyreactivity (PSR sort gate)” value does the source give for “QVQLVESGGGLVQTGGSLRLSCAASGRIFKHYAMGWYTHAPGKERELVAAITNGGRTNYSDSVKGRFTISRDNAKNTVYLQMNSLKPEDTAVSYCARDRKIAYLSEGFDYWGQGTQVSVSS” here?
**A.** low polyreactivity

**Q.** For “QVQLVESGGGLVQTGGSLRLSCAASGRIFRYYDMGWYRQAPGKEREFVAAITRSGAITYYADSVKGRFTISRDNAKNTVYLQMNSLKPEDTAVYYCFAVRHYALYAGRPYDYWGQGTQVTVSS”, which “polyreactivity (PSR sort gate)” value is on record?
**A.** low polyreactivity

**Q.** Which “polyreactivity (PSR sort gate)” value does the source give for “QVQLVESGGGLVQTGGTLRLSCAASGRSFNRNARAWYRLAPGKERELVAAISSRVGRTYYADSVKGRFTISRDNAKNSVYLKMNSLKQEETAVYYCNAVYSQSCYFYRFDYWGQGTQVNVSS” here?
**A.** high polyreactivity

**Q.** With “QVQLVESGGGLVQVGGSLRLSCAASGFIFTHYAMGWYRQAPGKERELVAAISVDGGDTYYADSVKGRFTISRDNAKNTVYLQMNSLKPEDTAVYYYWGQGTQVTVSS” as the sequence, how does the “polyreactivity (PSR sort gate)” value read?
**A.** low polyreactivity

**Q.** For “QVQLVESGGGLVQVGGSLRLSCAASGSNFPANAMGWYRQAPGKEWEFVAAINWSTGTTYYADSVKGRFTISRDNAKNTVYLQMNSLKPEDTAVYYCNASDQAKYDYWGQGTQVTVSS”, which “polyreactivity (PSR sort gate)” value is on record?
**A.** low polyreactivity

**Q.** Which “polyreactivity (PSR sort gate)” value does the source give for “QVQLVESGGGLVRAGGSLRLSWAASGFTFTSYAMGWYRQAPGKERELVAAITVTGGRTYYADSVKGRFTISRDNAKNTVYLQMNSLKPEDTAVYYCATVFSLSSPYWKHYYWGQGTQVTVSS” here?
**A.** high polyreactivity

**Q.** With “QVQLVESGGGLYQAGGSLRLSCAASGLIFTTNAMGWYRQAPGKEREFVAAISPSGGSTYYADSVKGRFTISRDNAKNTVYLQMNSLKPEDTAVYYCAARYSPVWHKYYYWGQGTQVTVSS” as the sequence, how does the “polyreactivity (PSR sort gate)” value read?
**A.** high polyreactivity

**Q.** Which “polyreactivity (PSR sort gate)” value does the source give for “QVQLVESGGGSDQAGGSLRLSCAASGSTFQYNVMGWYRQAPRKERELVAAIRQSGSTTYYADSVKGRFTISRDNAKNTVYLQMNSLKPEDTAVYYCAKRYHNWANSRMDYWGQGTQVTVSS” here?
**A.** low polyreactivity

**Q.** With “QVQLVESGGGSLRLSCAASGLTFGGYTMGWIRQAPGKERELVAAISSSDSTNYADSVKGRFTISRDNAKNTVYVQMNSLKPEDTALYSCSADSGQWSRYSSFGDEGDSWGQGTQVTVSS” as the sequence, how does the “polyreactivity (PSR sort gate)” value read?
**A.** low polyreactivity

**Q.** Which “polyreactivity (PSR sort gate)” value does the source give for “QVQLVESGGGSVQAGGSLRLSCAASGFTFDKNTMGWYRQAPGKERELVAAISSSGSSTYYADSVKGRFTISRDNAKNTVYLQMNSLKPEDTAVYYCAADYWGWDDYSEYYYWGQGTQVTVSS” here?
**A.** high polyreactivity

**Q.** With “QVQLVESGGGSVQAGGSLRLSCAASGSIFRANAMGWYRQAPGKERELVAAITANGGSTYYADSVKGRFTISRDNAKNTVYLQMNSLKPEDTAVYYCNNARVRGARFDYWGQGTQVTVSS” as the sequence, how does the “polyreactivity (PSR sort gate)” value read?
**A.** high polyreactivity

**Q.** Which “polyreactivity (PSR sort gate)” value does the source give for “QVQLVESGGGSVQAGGSLRLSCAASGSTFGGNVMGWYRQAPGKERELVAAISGSGGSTYYADSVKGRFTISRDTAKNTVYFQMNSLKPVDTSVYYCNVESSQSSSGFDYWGQGTQVTVSS” here?
**A.** low polyreactivity

**Q.** Which “polyreactivity (PSR sort gate)” value does the source give for “QVQLVESGGGSVQAGGSLRLSCAASGSTFVANTMGWYRQAPGKERELVASITSGDSTNYADSVKGRFTISRDNAKNTVYLQMNSLKPEDTAVYYCAAESVWYYVGGQLIYYYWGQGTQVTVSS” here?
**A.** low polyreactivity

**Q.** Which “polyreactivity (PSR sort gate)” value does the source give for “QVQLVESGGGVFQAGGTLSLSCAASGITFYPNDMGWYRQATGKETELVAAITTNDGDTYYADSVKGRFTISRDNAKNTVYLQMNSLKPEYTAVYYCAADSGSTSEYEYWGQGTQVTVSS” here?
**A.** low polyreactivity

**Q.** Which “polyreactivity (PSR sort gate)” value does the source give for “QVQLVESGGGVLQAGGSLRLSCAASGRTFCFYAMGWSRQAPGKERELVASITWRGGRTYYADSVKGRFTISRDNAKNTVYLQMNSLKPEDTAVYYCAAVTFSYDGYDYWGQGTQVTVSS” here?
**A.** low polyreactivity

**Q.** With “QVQLVESGGGVVQAGGILRFSCAASGRTFAPDAMGWYRQAPGKERELDAAITNGGSTTYADSVKGRFTISRDNAKNTVYLHMNSLNPEDTAVYYCAADIVSSTDYPFDYWGQGTQVNVSS” as the sequence, how does the “polyreactivity (PSR sort gate)” value read?
**A.** low polyreactivity

**Q.** Which “polyreactivity (PSR sort gate)” value does the source give for “QVQLVESGGGVVQAGGRLRLSCAASGGIYRYYAMGWYRQAPGKERELVAVITKSGGDTYYADSVKGRFTISRDNAKNTVYLQMNSLKPEDTAVYYCAAVYGYYTYWIAGFTWAGDYWGQGTQVTVSS” here?
**A.** low polyreactivity

**Q.** With “QVQLVESGGGVVQAGGSIRLSCAASGRIFTSNAMGWNRQAPGKETELDAAISGSGGRTYYADSVKGRFTISRDNAKNTVYLQMNSLKPEDTAVYDCNARYYTSGIAYSYYYWGQGTQGTVSS” as the sequence, how does the “polyreactivity (PSR sort gate)” value read?
**A.** high polyreactivity

**Q.** With “QVQLVESGGGVVQAGGSIRLSGAASGRIFGEYAMGWYRPAPAKERELGAAISGGGSTYYADSVKGRFTISRDNAKNTVYLQMNSLKPEDTAVYYCAVYSVYHEYDYGGQGTQVTVSS” as the sequence, how does the “polyreactivity (PSR sort gate)” value read?
**A.** low polyreactivity

**Q.** Which “polyreactivity (PSR sort gate)” value does the source give for “QVQLVESGGGVVQAGGSLRISCAASGSTFVRYAMGWYRQAPGKERELVASISSSGSTYYADSVKGRFTISRDYAKNTVNVELNCLNPEDNAVYYCAKQYGGRYGYWGQGSQVTVSS” here?
**A.** low polyreactivity

**Q.** Which “polyreactivity (PSR sort gate)” value does the source give for “QVQLVESGGGVVQAGGSLRLSCAASGFIFTFYAMGWYRQAPGKERELVAAITGRGGRTYYADSVKGRFTISRDNAKNTVYLQMNSLKPEDTAVYYCAARYRYSVTPGYVYWGQGTQVTLSS” here?
**A.** high polyreactivity

**Q.** Which “polyreactivity (PSR sort gate)” value does the source give for “QVQLVESGGGVVQAGGSLRLSCAASGFLFSHNAMGWYRQAPGKERELVASITSAGTTYYADSVKGRFTISRDNAKNTVYLQMNSLKPEDTAVYYCNKGGSSPVDIYITGDGDYWGQGTQVTVSS” here?
**A.** low polyreactivity

**Q.** For “QVQLVESGGGVVQAGGSLRLSCAASGLIFYLYAMGWYRQAPGKERELVAGITSGGGSTYYADSVKGRFTISRDNAQNTVYLQMNSLKPEDTAVDDCAARLVLYITVVYEDDYWGQGTQGTVSS”, which “polyreactivity (PSR sort gate)” value is on record?
**A.** low polyreactivity

**Q.** With “QVQLVESGGGVVQAGGSLRLSCAASGLIIPFYARGWYRQAPGKERELVAAISWSAGSTYYADSVKGRFTMSRDNAKTTVYLQMNSLKPEDTAVYYCATDRNPADFYWGQGTQVTVSS” as the sequence, how does the “polyreactivity (PSR sort gate)” value read?
**A.** low polyreactivity

**Q.** Which “polyreactivity (PSR sort gate)” value does the source give for “QVQLVESGGGVVQAGGSLRLSCAASGRIFIYYTMGWYRQAPGKEREFVAAITYSGGSTRYADSVKGRFTISRDNAKNTVYLQMNSLKPEDTAFYYCAAKFSVRRGFDYWGQGTQVTVSS” here?
**A.** low polyreactivity

**Q.** For “QVQLVESGGGVVQAGGSLRLSCAASGRIFRYNAMGWYRQAPGKEREVVAGISFSGGSTYYADSVKGRFTISRDNAKNTVYLQMNSLKPEDTAVYYCNAYGRYSYPTFDYWGQGTQVTVSS”, which “polyreactivity (PSR sort gate)” value is on record?
**A.** high polyreactivity

**Q.** Which “polyreactivity (PSR sort gate)” value does the source give for “QVQLVESGGGVVQAGGSLRLSCAASGRIFVGYDMGWYRQAPGKEWELVAAINRSGSSTYYADSVKGRFTISRDNAKNTVYLQMNSLKPEDTAVYYCNDRSGNRYGPRYDYWGQGTQVTVSS” here?
**A.** high polyreactivity

**Q.** With “QVQLVESGGGVVQAGGSLRLSCAASGRTFNYYAMGWYRQAPGKERELVAAISRTATTYYADSVKGRFTISRDNAKNTVYLQMNSLKPEDTAVYYCAARSYSSSFSYRHYYWGQGTQVTVSS” as the sequence, how does the “polyreactivity (PSR sort gate)” value read?
**A.** high polyreactivity
